We go through six molecules from US20250295803A1, “5T4 ANTIBODY-DRUG CONJUGATES AND USES THEREOF” (EXELIXIS, INC., priority 2022, published 2025).

Experiment [1] has as its target T1, HEK293 and CHO cells transfected to express human 5T4 (Homo sapiens, UniProt Q13641).
T1 construct: expressed in transfected cells; host or cells: HEK293 and CHO
T1 sequence (Q13641 32-420): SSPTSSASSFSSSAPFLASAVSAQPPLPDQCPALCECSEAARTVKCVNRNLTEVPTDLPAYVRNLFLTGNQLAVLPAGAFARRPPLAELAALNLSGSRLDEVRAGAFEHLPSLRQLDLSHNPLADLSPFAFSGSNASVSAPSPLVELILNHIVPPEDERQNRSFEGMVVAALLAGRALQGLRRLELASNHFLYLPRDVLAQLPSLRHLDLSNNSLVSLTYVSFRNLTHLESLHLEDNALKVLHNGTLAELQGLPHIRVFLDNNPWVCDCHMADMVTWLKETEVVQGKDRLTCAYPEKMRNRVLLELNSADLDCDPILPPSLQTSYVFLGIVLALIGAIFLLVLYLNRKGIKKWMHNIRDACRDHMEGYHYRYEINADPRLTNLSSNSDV
Description: Cell binding to transfected HEK293 and CHO cells, human 5T4. In kind it is cell-based. The protocol:
Unconjugated antibodies were tested for their ability to bind to HEK293 and CHO cells transfected to express human, cyno, rat, or mouse 5T4.

Another experiment has as its system MCF-7 cells. The experiment can be described thus: Cell binding (flow cytometry), MCF-7 cells. The experiment is classed as cell-based. As to the method: Antibodies that were selected for binding to 5T4, for example, such as those described in Example 2, were evaluated for binding to cells that express 5T4. Cells were harvested at 70-90% confluence on the day of the assay. In a v-bottom 96-well plate (Costar 3897), 100,000 cells per well were incubated with 50 μL per well 8- or 12-point antibody dilution series for 30 minutes at +4° C. After incubation, cells were washed once with PBS by centrifugation at 200×g for 5 minutes. Cells were then incubated with 50 μL per well of Alexa Fluor 488 Goat anti-human IgG Fab (Jackson Immuno Research 109-547-003) at 1:100 dilution for 30 minutes at +4° C. Cells were washed twice with PBS by centrifugation at 200×g for 5 minutes and were acquired on iQue Screener Plus (Sartorius). Mean fluorescence intensities of BL1 (Alexa-Fluor-488) channel were plotted against antibody concentrations to generate a dose response curve and EC50 values.

Experiment [2] concerns the target T2, unconjugated human TPBG/5T4 protein with a c-terminal polyhistidine and Avi tag (AcroBiosystems Cat. No. … (human, UniProt Q13641 32-355)).
T2 construct: Bought protein; also called Acro TPGH52E5; Acro Catalog No. TPGH52E; not shown: C-terminal polyhistidine and Avi tag
T2 sequence: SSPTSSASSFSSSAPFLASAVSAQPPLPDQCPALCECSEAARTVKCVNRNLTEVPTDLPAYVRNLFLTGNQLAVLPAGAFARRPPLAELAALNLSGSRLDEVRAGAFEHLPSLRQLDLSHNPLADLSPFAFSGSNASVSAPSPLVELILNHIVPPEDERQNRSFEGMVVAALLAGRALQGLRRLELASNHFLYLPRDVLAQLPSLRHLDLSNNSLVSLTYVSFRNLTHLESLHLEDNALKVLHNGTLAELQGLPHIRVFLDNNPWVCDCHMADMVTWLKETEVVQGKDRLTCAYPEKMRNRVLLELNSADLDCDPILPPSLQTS
The experiment can be described thus: ELISA on coated human 5T4 His-Avi (Acro TPG-H52E5); antibody condition: pH 5.5 Day 1. The protocol:
(§1) A. Normal Binding Unconjugated antibodies were tested for their ability to bind to human 5T4 (hu5T4) using ELISA. On Day 1, unconjugated human TPBG/5T4 protein with a c-terminal polyhistidine and Avi (AVITAG™) tag (AcroBiosystems (Newark, DE, USA), Cat. No. TPG-H52E5) was diluted 2 μg/mL in PBS, mixed thoroughly, plated 100 μL per well in a 96-well plate (Nunc MAXISORP®) and incubated overnight at 4° C.
(In general: In an ELISA, binding on a coated surface is turned into a signal by an enzyme label.)

Experiment [3] addresses T2, unconjugated human TPBG/5T4 protein …. Description: ELISA on coated human 5T4 His-Avi (Acro TPG-H52E5); antibody condition: PBS + H2O2 time 48 hr. As to the method: as §1
3. Oxidative Stress. Several unconjugated antibodies were tested for their ability to bind to 5T4 using ELISA in an oxidative environment. […]

For experiment [4] the target is unchanged. The experiment can be described thus: ELISA on coated human 5T4 His-Avi (Acro TPG-H52E5); antibody condition: PBS time 24 hr. The protocol:
as §1
3. Oxidative Stress. Several unconjugated antibodies were tested for their ability to bind to 5T4 using ELISA in an oxidative environment. Solutions of 1 mg/mL to 10 mg/mL of antibody in 20 mM citrate/50 mM NaCl at a pH of 5.5 were prepared and stored at 37° C. for 1 to 2 weeks.

The target is the same in experiment [5]. Description: Octet, antibody on AHC sensors, human 5T4 in solution (monovalent); Acro TPGH52E5 Lot B465-87AF1-JP. As to the method:
Monovalent binding assays were employed to determine the relative affinity of each 5T4 binder obtained by the phage display in Example 1 to human 5T4. Human 5T4 was purchased from Acro Biosystems (Acro Catalog No. TPGH52E) and also produced separately. The monovalent interaction of binders to human 5T4 was monitored using an Octet (Pall ForteBio) instrument. For these assays, 36 nM antibody was immobilized on anti-human Fc (AHC) sensors in 1× kinetic buffer (ForteBio). The sensors were then dipped in wells containing a 3× serial dilution of human 5T4 ranging from 1 μM to 1.37 nM. The association was allowed to reach equilibrium. Sensors were then moved to wells containing only 1× kinetic buffer and allowed to dissociate to equilibrium. Association and dissociation rates were measured and from these, monovalent KDS were calculated using the onboard analysis software (ForteBio).

Experiment [6] has the same target. Description: ELISA on coated human 5T4 His-Avi (Acro TPG-H52E5); antibody condition: pH 5.5 Day 7. The protocol: as §1
Experiment [7] has the same target. The experiment can be described thus: ELISA on coated human 5T4 His-Avi (Acro TPG-H52E5); antibody condition: pH 8.5 Day 7. The protocol:
as §1

B1: mAbA4: 5T4 antibody comprising VH of SEQ ID NO:25 and VL of SEQ ID NO:26 (antibody, V domains shown)
VH: EVQLVESGGGLVQPGGSLRLSCAASGFTFSRYYIHWVRQAPGKGLEWVAFISPGGSYTYYADSVKGRFTISADTSKNTAYLQMNSLRAEDTAVYYCAREYYSMGVLDYWGQGTLVTVSS
VL: DIQMTQSPSSLSASVGDRVTITCRASQSVSSAVAWYQQKPGKAPKLLIYSASSLYSGVPSRFSGSRSGTDFTLTISSLQPEDFATYYCQQAYESPYTFGQGTKVEIK
modifications: Antibody mAbA4 VH Sequence; Antibody mAbA4 VL Sequence
With B1, the “reactivity to cells transfected to express human 5T4” value (shortened to “reactivity to cells transfected”) in experiment [1] is given as “reactive”. Besides, in the experiment with MCF-7 cells, the “binding to MCF-7 cells” value was “binding”.

B2: mAbA15: 5T4 antibody comprising VH of SEQ ID NO:44 and VL of SEQ ID NO:45 (antibody, V domains shown)
VH: EVQLVESGGGLVQPGGSLRLSCAASGFTFSSYYIHWVRQAPGKGLEWVAYITSTGSYTEYADSVKGRFTISADTSKNTAYLQMNSLRAEDTAVYYCARYDRSTRYSGLDYWGQGTLVTVSS
VL: DIQMTQSPSSLSASVGDRVTITCRASQSVSSAVAWYQQKPGKAPKLLIYSASSLYSGVPSRFSGSRSGTDFTLTISSLQPEDFATYYCQQAYATPVTFGQGTKVEIK
modifications: Antibody mAbA15 VH Sequence; Antibody mAbA15 VL Sequence
Regarding B2, the “reactivity to cells transfected” value in experiment [1] is recorded as “reactive”. Further, the “binding to MCF-7 cells” value in the experiment with MCF-7 cells was “binding”.

B3: mAbA17 (antibody, V domains shown)
VH: EVQLVESGGGLVQPGGSLRLSCAASGFTFSRYWIHWVRQAPGKGLEWVAAIFPYSGSTLYADSVKGRFTISADTSKNTAYLQMNSLRAEDTAVYYCARSPSRSILPSGLDYWGQGTLVTVSS
VL: DIQMTQSPSSLSASVGDRVTITCRASQSVSSAVAWYQQKPGKAPKLLIYSASSLYSGVPSRFSGSRSGTDFTLTISSLQPEDFATYYCQQGDGSPYTFGQGTKVEIKR
notes: also called Antibody mAbA17
On to B3, for which the EC50 in experiment [2] came out at 0.159 nM; in experiment [3], 0.207 nM; in experiment [4] it was 0.186 nM; in experiment [6], 0.19 nM; in experiment [7], 0.158 nM. For the same molecule, binding in experiment [5] was put at a Kd of 21.1 nM.

B4: mAbA4 (antibody, V domains shown)
VH: EVQLVESGGGLVQPGGSLRLSCAASGFTFSRYYIHWVRQAPGKGLEWVAFISPGGSYTYYADSVKGRFTISADTSKNTAYLQMNSLRAEDTAVYYCAREYYSMGVLDYWGQGTLVTVSS
VL: DIQMTQSPSSLSASVGDRVTITCRASQSVSSAVAWYQQKPGKAPKLLIYSASSLYSGVPSRFSGSRSGTDFTLTISSLQPEDFATYYCQQAYESPYTFGQGTKVEIKR
notes: also called Antibody mAbA4
Turning to B4, the EC50 stood at 0.132 nM in experiment [2]; 0.386 nM in experiment [3]; 0.2 nM in experiment [4]; 0.124 nM in experiment [6]; 0.128 nM in experiment [7]. This molecule gave a Kd in experiment [5] of 30.2 nM.

B5: mAbA15 (antibody, V domains shown)
VH: EVQLVESGGGLVQPGGSLRLSCAASGFTFSSYYIHWVRQAPGKGLEWVAYITSTGSYTEYADSVKGRFTISADTSKNTAYLQMNSLRAEDTAVYYCARYDRSTRYSGLDYWGQGTLVTVSS
VL: DIQMTQSPSSLSASVGDRVTITCRASQSVSSAVAWYQQKPGKAPKLLIYSASSLYSGVPSRFSGSRSGTDFTLTISSLQPEDFATYYCQQAYATPVTFGQGTKVEIKR
notes: also called Antibody mAbA15
Consider B5, for which the EC50 in experiment [2] was 0.134 nM; in experiment [3], 0.189 nM; in experiment [4], 0.212 nM; in experiment [6] it was 0.132 nM; in experiment [7], 0.143 nM. In addition, in experiment [5], the affinity, expressed as Kd, was 11.2 nM.

B6: mAbA17: 5T4 antibody comprising VH of SEQ ID NO:62 and VL of SEQ ID NO:63 (antibody, V domains shown)
VH: EVQLVESGGGLVQPGGSLRLSCAASGFTFSRYWIHWVRQAPGKGLEWVAAIFPYSGSTLYADSVKGRFTISADTSKNTAYLQMNSLRAEDTAVYYCARSPSRSILPSGLDYWGQGTLVTVSS
VL: DIQMTQSPSSLSASVGDRVTITCRASQSVSSAVAWYQQKPGKAPKLLIYSASSLYSGVPSRFSGSRSGTDFTLTISSLQPEDFATYYCQQGDGSPYTFGQGTKVEIK
modifications: Antibody mAbA17 VH Sequence; Antibody mAbA17 VL Sequence
As for B6, the “reactivity to cells transfected” value in experiment [1] is listed as “reactive”. In the experiment on MCF-7 cells, the “binding to MCF-7 cells” value was “binding”.

The term EC50 denotes the concentration giving half of the maximal effect. The term Kd denotes the free concentration of one partner at which half of the binding sites on the other are occupied at equilibrium, for simple one-to-one binding.
